Source: patent CN113004416A (HEFEI HANKEMAB BIOTECHNOLOGY CO LTD, dated 2021)

How the values were obtained:
[1] = biological target: T1, 细胞表面HER2抗原 (HER2 on SKOV3, N87, MCF-7/HER2, MCF-7, JIMT-1, AC16 cells) (human, UniProt P04626 23-1255); assay: flow cytometry on N87 cells
T1 construct: whole, on cells

[2] = biological target: T1, 细胞表面HER2抗原 (HER2 on SKOV3, N87, …); assay: flow cytometry on AC16 cells
[3] = biological target: T1, 细胞表面HER2抗原 (HER2 on SKOV3, N87, …); assay: flow cytometry on SKOV3 cells
[4] = biological target: T1, 细胞表面HER2抗原 (HER2 on SKOV3, N87, …); assay: flow cytometry on JIMT-1 cells
[5] = biological target: T2, HER2抗原 (human HER2/ErbB2 in lysate of T6-17 cells, coated on ELISA plate) (human, UniProt P04626 23-1255); assay: ELISA on coated T6-17 cell lysate
T2 construct: The antigen is a crude detergent lysate of cells with high membrane expression of human HER2, not a purified protein

[6] = biological target: T1, 细胞表面HER2抗原 (HER2 on SKOV3, N87, …); assay: flow cytometry on MCF-7/HER2 cells
[7] = biological target: 人4-1BB抗原 (recombinant, purified from 293 cell supernatant by Protein A) (human); assay: ELISA on coated 4-1BB antigen
人4-1BB抗原 (recombinant, purified from 293 cell supernatant by Protein A) (human), sequence (chain, as listed by the source): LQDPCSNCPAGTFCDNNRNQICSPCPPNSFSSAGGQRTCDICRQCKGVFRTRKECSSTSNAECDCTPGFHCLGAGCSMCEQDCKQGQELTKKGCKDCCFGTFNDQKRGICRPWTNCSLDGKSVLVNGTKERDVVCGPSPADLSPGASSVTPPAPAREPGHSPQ

[8] = biological target: 细胞表面4-1BB抗原 (human 4-1BB on CHO-K1-Hu4-1BB stable cells; CD137 on lymphocytes) (human); assay: flow cytometry on CHO-K1-Hu4-1BB cells
细胞表面4-1BB抗原 (human 4-1BB on CHO-K1-Hu4-1BB stable cells; CD137 on lymphocytes) (human), sequence (chain, as listed by the source): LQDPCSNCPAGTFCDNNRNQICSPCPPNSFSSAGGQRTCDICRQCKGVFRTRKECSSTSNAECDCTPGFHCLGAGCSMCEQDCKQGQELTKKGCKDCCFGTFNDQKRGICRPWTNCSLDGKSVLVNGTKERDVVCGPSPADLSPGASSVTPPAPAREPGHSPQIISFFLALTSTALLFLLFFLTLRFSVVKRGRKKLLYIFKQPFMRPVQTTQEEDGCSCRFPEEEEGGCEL

Binder	EC50 [1]	EC50 [2]	EC50 [3]	EC50 [4]	EC50 [5]	EC50 [6]	EC50 [7]	EC50 [8]
抗人HER2单克隆抗体 Trastuzumab (Herceptin) (antibody, V domains shown, IgG1, kappa; also called 曲妥珠单抗) VH: not shown VL: DIQMTQSPSSLSASVGDRVTITCRASQDVNTAVAWYQQKPGKAPKLLIYSASFLYSGVPSRFSGSRSGTDFTLTISSLQPEDFATYYCQQHYTTPPTFGGGTKLTVLG	2 µg/mL	0.851 µg/mL	1.23 µg/mL	1.1 µg/mL	0.104 µg/mL	1.39 µg/mL	–	–
抗人4-1BB单克隆抗体 HuB6 (antibody, V domains shown, Monoclonal antibody; also called Hanke10F4 (专利申请201911105611.1)) VH: QVQLQESGPGLVKPSETLSITCTVSGSSLTSYGVHWVRQPPGKGLEGLGVIWPGGSTNYNSALMSRLTISKDNSKSQVSLKMSSLTAADTAMYYCARVTGTWYFDVWGQGTTVTVSS VL: DIQMTQSPSSLSASLGDRVTISCSASQGISNYLNWYQQKPDGTVKLLIYYTSTLHSGVPSRFSGSGSGTDFTLTISSLQPEDVATYYCQQYSKLPWTFGGGTKLEIK	–	–	–	–	–	–	0.00634 µg/mL	2.49 µg/mL
